This data set relates to activated salmon sperm DNA. The data set is described as follows: Specific DNA polymerase activity of enzymes purified and assayed with or without Tween 20 and NP-40. It is filed as biochemical. Here is the method: In one embodiment of the present invention, Taq Δ271 F667Y, and Taq Δ271 F667Y E681W were purified with or without detergents NP-40 & Tween-20. The butyl Sepharose chromatography elution profile for polymerase extracted without detergents was essentially identical to the profile for polymerase extracted with Tween 20 and NP-40.
DNA polymerase activity was measured by running reactions of 50 μL containing 25 mM TAPS (tris-hydroxymethyl-methylaminopropane sulfonic acid) buffer, pH 9.3 (measured at 25° C.), 50 mM KCl, 2 mM MgCl2, 1 mM 2-mercaptoethanol, 0.2 mM each of dGTP, dCTP, dTTP, 0.2 mM [α-^33P]-dATP (0.05-0.1 Ci/mmol) and 0.4 mg/mL activated salmon sperm DNA. The reaction mixture (45 μL) was pre-heated to 74° C. and diluted polymerase (5 μL) added with thorough mixing. After 10 minutes of further incubation at 74° C., the reaction was stopped by the addition of 10 μL of 60 mM EDTA and the entire mixture placed at 0° C. Acid-precipitable radioactivity was determined on an aliquot ([…]) by diluting with 1 ml of 2 mM EDTA containing 0.05 mg/ml salmon sperm DNA and adding 1 mL of 20% (w/v) trichloroacetic acid, 2% (w/v) sodium pyrophosphate (Na4P2O7 10H2O) and incubating on ice for at least 15 minutes. Precipitated DNA was collected by filtering through 2.4 cm GFC filter disks (Schleichter and Schuell) and washed 7 times with 5ml of with 1 N HCl, 0.1 M sodium pyrophosphate. The filter was placed in 3 ml of aqueous scintillation counting fluid and ^33P-specific radioactivity determined by scintillation counting.

Setting [1] is: detergent in purification: 0.1% Tween 20, 0.1% NP-40, detergent in assay: 0.1% Tween 20, 0.1% NP-40 (reference, 100%).
Setting [2] is: detergent in purification: 0.1% Tween 20, 0.1% NP-40, detergent in assay: None.
Where [3] appears, read: detergent in purification: None, detergent in assay: 0.1% Tween 20, 0.1% NP-40.
The mark [4] stands for this setting: detergent in purification: None, detergent in assay: None, 100% = polymerase purified and assayed using Tween 20 and NP-40.

B1: Taq Δ271, F667Y: Taq Δ271 F667Y DNA Polymerase (Thermo Sequenase), SEQ ID NO: 10, recombinant thermostable DNA polymerase (protein, listed as Thermus aquaticus)
chain: MLERLEFGSLLHEFGLLESPKALEEAPWPPPEGAFVGFVLSRKEPMWADLLALAAARGGRVHRAPEPYKALRDLKEARGLLAKDLSVLALREGLGLPPGDDPMLLAYLLDPSNTTPEGVARRYGGEWTEEAGERAALSERLFANLWGRLEGEERLLWLYREVERPLSAVLAHMEATGVRLDVAYLRALSLEVAEEIARLEAEVFRLAGHPFNLNSRDQLERVLFDELGLPAIGKTEKTGKRSTSAAVLEALREAHPIVEKILQYRELTKLKSTYIDPLPDLIHPRTGRLHTRFNQTATATGRLSSSDPNLQNIPVRTPLGQRIRRAFIAEEGWLLVALDYSQIELRVLAHLSGDENLIRVFQEGRDIHTETASWMFGVPREAVDPLMRRAAKTINYGVLYGMSAHRLSQELAIPYEEAQAFIERYFQSFPKVRAWIEKTLEEGRRRGYVETLFGRRRYVPDLEARVKSVREAAERMAFNMPVQGTAADLMKLAMVKLFPRLEEMGARMLLQVHDELVLEAPKERAEAVARLAKEVMEGVYPLAVPLEVEVGIGEDWLSAKE
Take B1: the “Assay (%*) specific activity” value amounted to 100% under setting [1], 3% under setting [2], 102% under setting [3] and 5% under setting [4].

B2: Taq Δ271, F667Y, E681W: Taq Δ271 F667Y E681W DNA Polymerase, SEQ ID NO: 12, recombinant thermostable DNA polymerase (protein, listed as Thermus aquaticus)
chain: MLERLEFGSLLHEFGLLESPKALEEAPWPPPEGAFVGFVLSRKEPMWADLLALAAARGGRVHRAPEPYKALRDLKEARGLLAKDLSVLALREGLGLPPGDDPMLLAYLLDPSNTTPEGVARRYGGEWTEEAGERAALSERLFANLWGRLEGEERLLWLYREVERPLSAVLAHMEATGVRLDVAYLRALSLEVAEEIARLEAEVFRLAGHPFNLNSRDQLERVLFDELGLPAIGKTEKTGKRSTSAAVLEALREAHPIVEKILQYRELTKLKSTYIDPLPDLIHPRTGRLHTRFNQTATATGRLSSSDPNLQNIPVRTPLGQRIRRAFIAEEGWLLVALDYSQIELRVLAHLSGDENLIRVFQEGRDIHTETASWMFGVPREAVDPLMRRAAKTINYGVLYGMSAHRLSQWLAIPYEEAQAFIERYFQSFPKVRAWIEKTLEEGRRRGYVETLFGRRRYVPDLEARVKSVREAAERMAFNMPVQGTAADLMKLAMVKLFPRLEEMGARML
For the molecule B2, the “Assay (%*) specific activity” value under setting [1] turned out to be 100%, the “Assay (%*) specific activity” value under setting [2] is listed as 2%, the “Assay (%*) specific activity” value under setting [3] worked out at 157% and the “Assay (%*) specific activity” value under setting [4] is reported as 6%.

(Values after patent US20030134292A1, “Thermostable DNA polymerases and methods of making same” (priority 2001, published 2003).)
